The results in this text go back to the nanobody polyreactivity screen of Harvey et al. (2022).

This data set is described as follows: yeast display, Sf9 membrane polyspecificity reagent, FACS + sequencing; frameworks hold sequencing errors. A digest of the protocol:
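Galactose induction of a Saccharomyces cerevisiae BJ5465 synthetic nanobody display library ran 36–48 hours. The cells were then stained for 1 hour at 4 °C with 10% biotinylated, detergent-solubilized Sf9 membrane reagent, pulled down on streptavidin microbeads and FACS-sorted into low and high (top ~1%) gates on expression and reagent-binding fluorescence. Labels for polyreactivity follow the gate of origin.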
For “QVQLVETGGGLVQAGGSLRLSCAASGRTFQYYAMGWYRQATGTERELVAAITSGGSTYYADSVKGRFTISRDNAKKTVYLQMNSLKPEDTAVSYCAATFYYSGHDDYWGQVTQVTVSS”, the “polyreactivity (PSR sort gate)” value is listed as “low polyreactivity”.

“QVQLVETGGGLVQAGGSLRLSCAASGRTFYYNGRGWYRQAPGKERELVAAITSGGTTSYADSVKGRFTISRDNAKNTVYLQMNSLKPEETAVYYCNADYWAVNYDYWGQGTQVTVSS”: the “polyreactivity (PSR sort gate)” value is reported as “low polyreactivity”.

As to “QVQLVETGGGLVQAGGSLRLSCAASGRTLSQNTMGWNRQAPRKEREFVASITYSGGITYYADSVKGRFTISRDNAKNTVYLQMNSLKPEDTAVYYCNKRGSHYWYSYPGDYWGQGTQVTVSS”, the “polyreactivity (PSR sort gate)” value was “low polyreactivity”.

As to “QVQLVETGGGLVQAGGSLRLSCAASGRTYLIYAMGWYRQAPGKERELVAAIRDRGATTYYADSVKGRFTISRDNAKNTVYLQMNSLKPEETAVYYCAARNGAYPALKEGDYWGQGTQVTVSS”, the “polyreactivity (PSR sort gate)” value was “high polyreactivity”.

“QVQLVETGGGLVQAGGSLRLSCAASGSIADVYAMGWYRQAPGKERELVAAITSGASTYYADSVKGRFTISRDNAKNTVYLQMNSLKPEDTAVYYCTKSAAITGNGHMDYWGQGTQVTVSS”: the “polyreactivity (PSR sort gate)” value was “low polyreactivity”.

Regarding “QVQLVETGGGLVQAGGSLRLSCAASGSIFFLYAMGWYRQAPGKERELVAAISRTGSTYADSVKGRLTISRDNAKNTVYLQMNSLKPEDTAVYYCDAEYRYYWYGTMNYWGQGTQVTVSS”, the “polyreactivity (PSR sort gate)” value is recorded as “low polyreactivity”.

Take “QVQLVETGGGLVQAGGSLRLSCAASGSIFIYYAMGWYRQAPGKERELVAAIRLSSGSTYYADSVKGRFTISRDNSKNTVYLQMIRLKPEYTAVYYCAARRKRPFSVYDHWGKGTQVTVSS”: the “polyreactivity (PSR sort gate)” value is given as “high polyreactivity”.

For “QVQLVETGGGLVQAGGSLRLSCAASGSIFLGNAMGWYRQAPGKERELVAAISGGDSTNYADSVKGRFTISRDNAKNTVYLQMKSLKPEDTAVYYCNALTHWAPASYEYDYWGQCTQVTVSS”, the “polyreactivity (PSR sort gate)” value was “low polyreactivity”.

Turning to “QVQLVETGGGLVQAGGSLRLSCAASGSIFTPYAIGWYRKAPGKDRELVAAITSRGGTTYYADSVKGRFTISRDNAKNTVYLQMNSLKPEDTAVYYCAAEYYHLYYYQFDYWGQGTQVTVSS”, the “polyreactivity (PSR sort gate)” value is reported as “high polyreactivity”.

For “QVQLVETGGGLVQAGGSLRLSCAASGSIFVYYAMGWYRQAPGKERELVAAISSRGGRTYYADSVKGRFTISRDNAKHTVYLQMNSLIPEDTAVYYCAASPDYSRYWVYAPNRRLGYWGQGTQVTVSS”, the “polyreactivity (PSR sort gate)” value is “high polyreactivity”.

Regarding “QVQLVETGGGLVQAGGSLRLSCAASGSISPINAMGWYRQPPGKERELVAAINGGGSTYYADSVKGRFTISRDNAKNTVYLQMNSLKPEDTAVYYCSRDALHYAGSLHRYGYWGQGTQVTLSS”, the “polyreactivity (PSR sort gate)” value is reported as “low polyreactivity”.

Turning to “QVQLVETGGGLVQAGGSLRLSCAASGSTFEYYAMGWYRQAPGKERELVAAISSGPSTTYADSVKGRFTISRDNAKNTVYLQMNSLKPEDTAVYYCARRDGTTQALFGYDYWGQGTQVTVSS”, the “polyreactivity (PSR sort gate)” value was “low polyreactivity”.

On to “QVQLVETGGGLVQAGGSLRLSCAASGSTFGYYAMGWYRQAPGKERELVAAITSGGSTYYADSVKGRFTISRDNAKNSVFLQMNSLKPEDTAVYYCAATWYGFAYDYWGQGTQVTVSS”, for which the “polyreactivity (PSR sort gate)” value was “low polyreactivity”.

Take “QVQLVETGGGLVQAGGSLRLSCAASGSTFYPTYAMGWYRQAPGKERELVATITGSGGSTYYADSVKGRFTISRDNAKNTVYLKMNSLKPEDTAVYYCAADRWYSRYTRYGYWGQGTQVTVSS”: the “polyreactivity (PSR sort gate)” value was “low polyreactivity”.

As for “QVQLVETGGGLVQAGGSLRLSCAASGSTFYRYAMGWYRQAPGKERELVAAITRSGGGTHYADSVKGRFTISRDNAKNTVYLQMNSLKPEDTAVYYCAKRQSGYRYDYWGQGTQVTVSS”, the “polyreactivity (PSR sort gate)” value is recorded as “low polyreactivity”.

Regarding “QVQLVETGGGLVQAGGSLRLSCAASGSTLTYYTMGWYRQAPGKERELVARISWSSGRTYYAVSVKGRFTISRDNAMNTVYLQMNSLKPEDTAVYYCNADRTYYRGLDYWGQGTQVTVSS”, the “polyreactivity (PSR sort gate)” value is on record as “high polyreactivity”.

Take “QVQLVETGGGLVQAGGSLRLSCAASGYIFYPYTMGSYRPAPGKATELVAAITWSGSTYSADSVQGRFTMSRDTAKNTVYLQMKSLKPEDTAVYYCAADFDSYDSYTYLQYDYWGQGTQVTVSS”: the “polyreactivity (PSR sort gate)” value is “low polyreactivity”.

Regarding “QVQLVETGGGLVQAGGSLRLSCAASVIISSVYAMGWYRQAPGNERELVAAISGSGGSTYYADSVKGRFTISRDNAKNTVYLQMISLKPEDTAVYYCAKGYQYQGNSYGYWGQGTQVTVSS”, the “polyreactivity (PSR sort gate)” value is listed as “low polyreactivity”.

For the sequence “QVQLVETGGGLVQAGGSLRLSCAATEFIFRNYDMGWYRQAPGKERELVASISRGTSTNYADSVKGRFTISRDNAKNTVYLQKNSLKPEDTAVYYCNKRFYYHPFDYWGQGSQVTVSS”, the “polyreactivity (PSR sort gate)” value is on record as “high polyreactivity”.

In the case of “QVQLVETGGGLVQAGGSLRLSCAATGFTFGYYTMGWYRQAPGKEGELVAAITWRGGSTYYADSVKGRFTISRDNAKNTVYLQMNSLKPEDTAVYYCNAVVLGYYPSGVYPDDEEHDYWGQGTQVTVSS”, the “polyreactivity (PSR sort gate)” value is listed as “high polyreactivity”.

In the case of “QVQLVETGGGLVQAGGSLRLSCAATGLIFYSYPMGWYRQAPGKERELVAALNGGGGSTYYADSVKGRFTISRDNAKNTVYLQMKSLKPEDTAVYYCAADLYNRGRGSSQSYRTGYDYWGQGTQVTVSS”, the “polyreactivity (PSR sort gate)” value was “high polyreactivity”.

Consider “QVQLVETGGGLVQAGGSLRLSCAPSGFTFRRNAMGWYRQAPGKERELVAVITSSARTNYADSVKGRFTISRDNAKNTVYLQMNSLKPEDTAVYYCAARYHYGVWRERHGYWGQGTQVTVSS”, for which the “polyreactivity (PSR sort gate)” value was “high polyreactivity”.

As for “QVQLVETGGGLVQAGGSLRLSCASSGFIFVRYAMGWYRQAPGKERELVAAITKGGGRTYYADSVKGRFTISRDNAKNTVYLQMNSLKPEDTAVYYCATAGAHGRERDYWGQGTQVTVSS”, the “polyreactivity (PSR sort gate)” value is listed as “high polyreactivity”.

For “QVQLVETGGGLVQAGGSLRLSSAASGGIFSPNAMGWYRQAPGKEREFVAAISSNGGSTNYADSVKGRFTISRDNAKNTVYLQMNSLKPEDTAVYYCAADYPDHPLWGPEYDYWGQRTQVTVSS”, the “polyreactivity (PSR sort gate)” value is listed as “low polyreactivity”.

Consider “QVQLVETGGGLVQAGGSLRLSSAGSGSISYAYAMGWYRQARGKEREFVAAITDSGGSTYYADSVKGRFTISRDNAKNTVYSQMNSLKPEDTAVYYCAAGGPWWSGYYYWGQGTQVTVSS”, for which the “polyreactivity (PSR sort gate)” value is reported as “low polyreactivity”.

Regarding “QVQLVETGGGLVQAGGSLRVSCAASGSIFVGYPMGWYRQAPGKERELVAAISSNGGSTYYADSVKGRFTISRDNAKNTVYVQMNSLKPEDTAVYYCAAGVRRVYASGHGAYGYWGQGTQVTVSS”, the “polyreactivity (PSR sort gate)” value is “low polyreactivity”.

As for “QVQLVETGGGLVQAGGSLSLSCAASGYIFEINAKGWYRQAPGKERELVADIRRGDSTNYADSVKGRFTISRDNSMNTVYLQMNSLKPEDTAVYYCAAYHRLFDYDYCGQGTQVTVSS”, the “polyreactivity (PSR sort gate)” value is recorded as “high polyreactivity”.

As to “QVQLVETGGGLVQAGGSLSLSCAGSVSTFWFYPMGCYRQATGKEREFVATISRSGGSTHNADSVKGRFTISSDNAKNTVYLQMNSLKPEDTAVYYCAKYQRYYSNDYNYWGQGTQVTVSS”, the “polyreactivity (PSR sort gate)” value is “high polyreactivity”.

In the case of “QVQLVETGGGLVQAGGTLRLSCAASGRTFSRNAMGCDRPAPGKERELVAAITSGGGTYYADSVKGRFTISRDNAKNTVYLQMNSLKPEDTAVYYCNKKTSAGRVDYWGQGTQVTVSS”, the “polyreactivity (PSR sort gate)” value was “high polyreactivity”.

“QVQLVETGGGLVQAGGTLRLSCADSGSIYEDNAKGWYRQAPGKERELDAAITWSGDSTYYADSVKGRFTISRDTEKNTVYLQMNSLKPEDTAVYYCNTYRIFCYSRYYAGYDYWGQGTQVTVSS”: the “polyreactivity (PSR sort gate)” value is reported as “low polyreactivity”.

Regarding “QVQLVETGRGLVQAGGSLRISCAPCGFTFWRNAMGGYRQAPGKERELVAAINWSGGSPYYADSVKGRFTISRDNAMNTVYLQINSRKADDTAVYYCNRRGQYTFWPIHEYWGQGTQVTVSS”, the “polyreactivity (PSR sort gate)” value is “high polyreactivity”.

Turning to “QVQLVETGRGLVQAGGSLRLICAASGRTFGYYAMGWYRQAPGKEREFVAAISHSAGSTSYADSVKGRFTISRDNAKNTVYLQMNSLKPEDTAVFYFAAEICYLSVPRYDYWGQGTQVTVSS”, the “polyreactivity (PSR sort gate)” value is “low polyreactivity”.

With “QVQLVETGRGLVQAGGSLRLSCAASGLTFKFNAMGWYRQAPGKEREFVAAISRSGGRTYYAESVKGRFTISRDNAKNTVYFQMNSLKPEDTAVYFCADEEIVYYPVLFEYDYWGQGTQVTASS”, the “polyreactivity (PSR sort gate)” value is “high polyreactivity”.

As to “QVQLVETGRGLVQAGGSLRLSCAHSGRTFFSYAMGWYRQAPGKEREFVAAITGGGTYYADSVKRRFTISSDNAKNTVYLHMNSLKPEDTAVYYCAAAKRGTDYLSSFWMDYWGQVTQVTVSS”, the “polyreactivity (PSR sort gate)” value is “low polyreactivity”.

On to “QVQLVETGVGIVQAGGSLRLSCASSGSNCPLYAMGWYRQAPGKEREFVAAIRWIGGSTYYADSVKRRFTNSRDYAKNSVYLQMISLKPVDTAVYYCAAVYVVSAFDYWGQGTQVSVSS”, for which the “polyreactivity (PSR sort gate)” value is listed as “low polyreactivity”.

For the sequence “QVQLVETGVGLVKAGGSLRLSSAASGYIFYYYAMGWYRQERGKERELVAAISTSDTRTFYADSVKGRFSISRDNAKNTVYLQMNSLKPEDTAVYYCAASLYICGPNYGYEYWGLGTQVTVSS”, the “polyreactivity (PSR sort gate)” value is “low polyreactivity”.

Turning to “QVQLVETGVGLVQAGGSLRLSCAASGLTFPNYDMGWYRQAPGKEMELVAAISSSGGSTYYADSVKGRFTISRDNAKNTVYLQMNSLKPEDTAVYYCATEWSYYNYGYDYWGQGTQVTVSS”, the “polyreactivity (PSR sort gate)” value is on record as “low polyreactivity”.

Turning to “QVQLVETGVGLVQAGGSLRLSSAASGSIFFTYTMGRYRQAPGKERELVATITYGGGGTYYADSVKGRFTISRDNAKNTVYLQMNSLKAEDTAVYYCAKDHATVLSRWYRGMDYWGQGTQVTVSS”, the “polyreactivity (PSR sort gate)” value is given as “low polyreactivity”.

“QVQLVETRGGLVQAGGILRFSCAASGFTFSSNDMGWYRQAPAKEREFVAVIDSGDITNYADSVKGRFTISRDNAKNTVYLQMNSLKPEDTAVYYCAARYYAAGIGSRYDYWGQGTQVTVSS”: the “polyreactivity (PSR sort gate)” value is recorded as “high polyreactivity”.

For the sequence “QVQLVETVGGLVQAGGSLRLRCAASGSIFLYNAMGWYRQAPGKERELFAVINGRGGTYYADSVKGRFTISRDNAKNTVYLQINSLKPEDTAVYYCATGYTPSAWYDSVRFEDRDSWGQGTQVTVSS”, the “polyreactivity (PSR sort gate)” value is on record as “low polyreactivity”.

Take “QVQLVETVGGLVQAGGSLRLSCAASGSTFYRYAMGWYRQAPGKERELVAAISSSGGSTYYADSVKGRFTISRDNAKNSVYLQMNSLKPEDSAVYYCNAARNFRYDYWGQGTQVTVSS”: the “polyreactivity (PSR sort gate)” value is given as “high polyreactivity”.
